Results published in publication PMC6402485 (Biochemistry, 2013).
Like-named read-outs stand apart in the source and are kept apart here.

Experiments:
[1] = target: the molecule itself; experiment: native MS
[2] = target: the molecule itself; experiment: native MS; remark: listed apart in the source

B1: Wild type SgrAI ENase (enzyme, Streptomyces griseus)
chain: PFTYSIEATRNLATTERCIQDIRNAPVRNRSTQFQLAQQNMLAYTFGEVIPGFASAGINGMNYRDVIGRPVENAVTEGTHFFRDDFRVDSNAKAKVAGDIFEIVSSAVMWNCAARWNSLMVGEGWRSQPRYSRPTLSPSPRRQVAVLNLPRSFDWVSLLVPESQEVIEEFRAGLRKDGLGLPTSTPDLAVVVLPEEFQNDEMWREEIAGLTRPNQILLSGAYQRLQGRVQPGEISLAVAFKRSLRSDRLYQPLYEANVMQLLLEGKLGAPKVEFEVHTLAPEGTNAFVTYEAASLYGLAEGRSAVHRAIRELYVPPTAADLARRFFAFLNERMELVNG
- stoichiometry N [1]: 38
- stoichiometry N [2]: 2
